One test relates to THP-1 cells. Description: High content analysis of LC3 puncta in THP-1 cells (TRIM family screen conditions). The note with it: IFN-γ 4 h. The class given is cell-based, human. The procedure: (A) THP-1 cells were subjected to TRIM knockdown, treated with 1,000 U/mL IFN-γ for 4 h, and high content (HC) analysis was performed using a Cellomics HCS scanner (epifluorescence) and iDEV software. HC (magenta, endogenous LC3B immunofluorescence [IF]; blue, nuclei stained with Hoechst). Mask overlay, software-defined objects (primary objects, cell outlines; internal secondary objects, LC3 puncta). (B) Average count of LC3 puncta per cell from cells treated as in (A) (Data from two 96-well plates with identical siRNA arrangements; the corresponding data are shown in Supplementary FIG. 1C). Encircled are INF-γ-treated wells (right) and wells with vehicle controls (bottom left). TRIM knockdowns that reduced LC3 puncta readout in both two experiments by 3 SDs (horizontal dot lines) from the average of IFN-γ-treated controls (horizontal solid line) are indicated by corresponding TRIM numbers (open circle). TRIMs that were chosen in follow-up experiments in FIG. 1C are also indicated with number. (C) Similar to (B), except that THP-1 cells were subjected to specific TRIM or scrambled (Scr; control) knockdown, and were analyzed in more than quadruplicate manner. […] (E) THP-1 cells were treated with TRIM20 or Scr siRNAs, treated with or without IFN-γ for 4 h in the presence of bafilomycin A1, and LC3-II conversion was determined by immunoblots. […]

The subject of another test is TRIM21. Description: TRIM21 mRNA levels by quantitative RT-PCR in THP-1 cells. The class given is cell-based, human. The note with it: 1,000 U/ml IFN-γ for indicated times. How it is done: (A) THP-1 cells were treated with 1,000 U/ml of IFN-γ for indicated times, and TRIM21 mRNA levels were determined by quantitative RT-PCR. (B) Co-immunoprecipitation analysis of GFP-TRIM20 with Flag-TRIM21 in HEK293 cells extracts. (C) Knockdown efficacy of TRIM21 level was examined by immunoblotting. (D) Levels of dimerized IRF3 were assessed by native PAGE from THP-1 cells subjected to TRIM21 or control knockdown, untreated with IFN-γ, and transfected with herring testis DNA (HT-DNA). (E and F) THP-1 cells subjected to TRIM21 or control knockdown were infected with a single-round infection HIV1 virus in the presence of 200 U/mL IFN-γ for 20 h, and (E) the levels of dimerized IRF3 or (F) mRNA levels of IFN-β were determined. […]
(§1) Detection of IRF3 dimerization was performed by native polyacrylamide gel electrophoresis (PAGE) as previously described (Takahasi et al., 2003). Quantitative RT-PCR was performed as previously described (Kimura et al., 2013) using the following primer sets: ULK1, ([…], […]); BECN1, ([…], […]); ACTIN, ([…], […]); TRIM1, ([…], […]); TRIM5, ([…], […]); TRIM8, ([…], […]); TRIM16, ([…], […]); TRIM20, ([…], […]); TRIM21, ([…], […]); TRIM22, ([…], […]); TRIM28, ([…], […]); TRIM56, ([…], […]); and TRIM65, ([…], […]). […]

The subject of the next test is TRIM20. Description: TRIM20 mRNA levels by quantitative RT-PCR in THP-1 cells. The note with it: escalating doses for 4 h or 1,000 U/ml for indicated times. The test is classed as cell-based, human. The procedure:
(A and B) High content image analysis of LC3 puncta in (A) THP-1 cells or (B) human MDM cells treated with IFN-γ for 4 h. HC and mask overlays are as in FIG. 1. (C) Screen data from FIG. 1B showing average±range. (D) Knockdown efficacy of TRIMs were determined by RT-PCR. (E and F) THP-1 cells were treated with (E) escalating doses of IFN-γ for 4 h or (F) 1,000 U/ml of IFN-γ for indicated times, and TRIM20 mRNA levels were determined by quantitative RT-PCR. Values are standardized to (E) no IFN-γ control or (F) 0 h time point. (G) THP-1 cells were subjected to TRIM20 or scrambled siRNA, treated with IFN-γ for 4 h, and HC analysis performed. (H) Knockdown of TRIM20 mRNA levels was examined by quantitative RT-PCR. Values are standardized to control (Scr, scrambled; no IFN-γ). (I) LC3-II conversion in HEK293 cells transfected with GFP-TRIM20 (T20) or GFP. […]
as §1

Test [1] has as its system primary human macrophages. Description: High content analysis of LC3 puncta in primary human macrophages. The test is classed as cell-based. The note with it: IFN-γ 4 h. How it is done: (A and B) High content image analysis of LC3 puncta in (A) THP-1 cells or (B) human MDM cells treated with IFN-γ for 4 h. HC and mask overlays are as in FIG. 1. (C) Screen data from FIG. 1B showing average±range. (D) Knockdown efficacy of TRIMs were determined by RT-PCR. (E and F) THP-1 cells were treated with (E) escalating doses of IFN-γ for 4 h or (F) 1,000 U/ml of IFN-γ for indicated times, and TRIM20 mRNA levels were determined by quantitative RT-PCR. Values are standardized to (E) no IFN-γ control or (F) 0 h time point. (G) THP-1 cells were subjected to TRIM20 or scrambled siRNA, treated with IFN-γ for 4 h, and HC analysis performed. (H) Knockdown of TRIM20 mRNA levels was examined by quantitative RT-PCR. Values are standardized to control (Scr, scrambled; no IFN-γ). (I) LC3-II conversion in HEK293 cells transfected with GFP-TRIM20 (T20) or GFP. Data, means±SE, n≥3 experiments, except panel (C). Scale bars, 5 μm. *P<0.05, ^†P≥0.05 (t test in (B) or ANOVA (other panels)).
High content imaging and analysis was performed using a Cellomics V^TI HCS scanner and iDEV software (ThermoScientific). […] Epifluorescnece images were machine analyzed using present scanning parameters and object mask definitions. Hoechst 33342 staining were used to automatically detect cellular outlines based on background staining of the cytoplasm, and the mean count of LC3 puncta per cell was determined.

B1: IFN-γ: interferon-gamma (PeproTech), precision autophagy modulator (protein, UniProt P01579 24-161, looked up)
Interferon gamma: QDPYVKEAENLKKYFNAGHSDVADNGTLFLGILKNWKEESDRKIMQSQIVSFYFKLFKNFKDDQSIQKSVETIKEDMNVKFFNSNKKKRDDFEKLTNYSVTDLNVQRKAIHELIQVMAELSPAAKTGKRKRSQMLFRG
On to B1, for which the “autophagy induction (LC3 puncta per cell)” value (with THP-1 cells; in test [1]) was “induced autophagy” each time. Further, the TRIM21 expression result in the test on TRIM21 is on record as “transiently induced”. In addition, in the test on TRIM20, the TRIM20 expression entry is listed as “responsive”.

These data come from patent publication US10610564B2, “IRGM and precision autophagy controls for antimicrobial and inflammatory disease states and methods of detection of autophagy” (STC.UNM, priority 2015, dated 2020).
